Experimental data reported in patent US12564617B2, “Methods for modulating macrophage activity” (Riptide Bioscience, Inc., priority 2019, dated 2026).

Target: T1, recombinant mouse CD206 full length protein (Mus musculus, UniProt Q61830)
T1 construct: honeybee melittin signal peptide (N); host or cells: Expi293E cells
T1 sequence (Q61830 23-1387): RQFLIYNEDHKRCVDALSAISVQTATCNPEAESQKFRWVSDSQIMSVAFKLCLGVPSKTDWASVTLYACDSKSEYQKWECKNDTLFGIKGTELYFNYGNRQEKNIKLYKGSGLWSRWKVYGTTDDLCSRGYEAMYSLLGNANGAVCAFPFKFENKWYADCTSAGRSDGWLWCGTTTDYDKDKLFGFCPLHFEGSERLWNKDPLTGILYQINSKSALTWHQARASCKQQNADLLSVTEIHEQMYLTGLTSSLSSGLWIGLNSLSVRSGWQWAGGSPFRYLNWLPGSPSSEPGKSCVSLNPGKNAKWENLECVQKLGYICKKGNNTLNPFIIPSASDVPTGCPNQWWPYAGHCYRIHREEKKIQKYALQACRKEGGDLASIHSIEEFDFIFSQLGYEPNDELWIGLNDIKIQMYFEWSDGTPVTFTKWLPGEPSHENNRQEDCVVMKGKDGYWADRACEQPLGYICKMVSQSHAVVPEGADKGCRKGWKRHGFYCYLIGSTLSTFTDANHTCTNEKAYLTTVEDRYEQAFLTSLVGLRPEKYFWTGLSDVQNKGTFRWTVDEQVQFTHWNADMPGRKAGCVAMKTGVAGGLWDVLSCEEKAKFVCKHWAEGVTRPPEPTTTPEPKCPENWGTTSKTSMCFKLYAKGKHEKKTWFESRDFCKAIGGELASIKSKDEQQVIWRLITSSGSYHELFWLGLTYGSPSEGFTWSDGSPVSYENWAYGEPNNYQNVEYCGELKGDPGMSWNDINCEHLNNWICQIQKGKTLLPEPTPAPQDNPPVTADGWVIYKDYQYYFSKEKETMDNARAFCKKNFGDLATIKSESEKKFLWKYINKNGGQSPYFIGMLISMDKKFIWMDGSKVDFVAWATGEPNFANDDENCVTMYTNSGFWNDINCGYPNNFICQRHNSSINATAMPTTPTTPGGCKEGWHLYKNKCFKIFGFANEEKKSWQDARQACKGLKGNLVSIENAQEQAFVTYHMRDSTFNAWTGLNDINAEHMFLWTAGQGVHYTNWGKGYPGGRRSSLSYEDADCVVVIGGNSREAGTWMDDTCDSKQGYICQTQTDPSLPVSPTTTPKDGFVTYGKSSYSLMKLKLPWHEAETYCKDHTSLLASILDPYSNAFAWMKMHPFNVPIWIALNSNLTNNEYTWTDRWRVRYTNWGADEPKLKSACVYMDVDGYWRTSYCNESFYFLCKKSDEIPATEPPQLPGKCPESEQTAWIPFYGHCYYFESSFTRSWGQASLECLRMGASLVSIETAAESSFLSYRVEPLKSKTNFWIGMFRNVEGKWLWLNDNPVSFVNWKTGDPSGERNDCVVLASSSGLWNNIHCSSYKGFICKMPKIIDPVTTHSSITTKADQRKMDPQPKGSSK
Experiment: Negative stain electron microscopy of open vs closed CD206 conformation
Assay type: biochemical
Details: negative stain EM
Protocol: A 3 μL aliquot containing ˜0.01 mg/mL of the sample was applied for 20 seconds onto a carbon-coated 200 Cu mesh grid that had been glow discharged at 30 mA for 30 sec, then negatively stained with 0.7% (w/v) uranyl formate for 40 sec. […] Images were acquired with an Eagle 2k×2k CCD camera (http://FEI.com) using a nominal defocus of 1500 nm and the SerialEM software (54). […] Images were acquired with a Ceta 4k×4k CCD camera (http://FEI.com) using a nominal defocus of 1200 nm and the EPU software. For electron microscopy data processing, particles were selected from the micrographs, extracted, and a reference-free 2D class averages were obtained using RELION 2.1.0. Microscale thermophoresis and cellular thermal shift assays.

| Sequence | closed vs open conformation of CD206 |
| --- | --- |
| EKLSAFRNFF [AVP1] | lower ratios of closed-to-open conformations |
| FFRKSKEKIG [LL37F1, 10mer motif from cathelicidin antimicrobial peptide [Homo sapiens]] | lower ratios of closed-to-open conformations |
